Source: patent US20220042033A1, “COMPOSITION AND METHOD FOR CONFERRING AND/OR ENHANCING TOLERANCE AGAINST HERBICIDES BY USING VARIANTS OF PPO” (FarmHannong Co., Ltd., priority 2017, published 2022)

Legend:
[1] = tested on: ApPPO1; assay: PPO enzyme activity of purified MBP-fused ApPPO1 wild type and variants; assay type: biochemical, Auxenochlorella protothecoides; settings: PPO enzyme activity relative to ApPPO1 wild type; MBP-fused protein
Method: Thus, PPO proteins of wild type and variants were expressed as fused to MBP and were used for experiments.
The following process for purification of PPO protein was performed in a 4° C. cold room. […] The column was washed with 3 column volumes of buffer and the presence of protein in the washing solution was examined. When the protein was no longer detected, the washing procedure was terminated. Then, the MBP-PPO protein was eluted with approximately 2 column volumes of buffer containing 20 mM maltose. The protein concentration of each eluent was determined and the elution was stopped when the protein was no longer detected. Ten microliter of each fraction was investigated for protein quantification and SDS-PAGE analysis. The highly pure fractions of PPO protein variants were used for the enzyme assay.
Since protoporphyrinogen IX, a substrate of PPO protein, was not commercially available, it was chemically synthesized in the laboratory. Overall process was performed in dark under nitrogen stream. […] of protoporphyrin IX was dissolved in 20 ml of 20% (v/v) EtOH, and stirred under dark condition for 30 minutes. The obtained protoporphyrin IX solution was put into a 15 ml screw tube in an amount of 800 μl, and flushed with nitrogen gas for 5 minutes. To this, 1.5 g of sodium amalgam was added and vigorously shaken for 2 minutes. The lid was opened to exhaust hydrogen gas in the tube. Thereafter, the lid was closed and incubated for 3 minutes. The protoporphyrinogen IX solution was filtered using syringe and cellulose membrane filter. To 600 μl of the obtained protoporphyrinogen IX solution, approximately 300 μl of 2M MOPS [3-(N-morpholino) propanesulfonic acid] was added to adjust pH to 8.0. To determine the enzyme activity of PPO protein, a reaction mixture was prepared with the following composition (based on 10 ml): 50 mM Tris-Cl (pH 8.0); 50 mM NaCl; 0.04% (v/v) Tween 20; 40 mM glucose (0.072 g); 5 units glucose oxidase (16.6 mg); and 10 units catalase (1 μl).
Hundred and eighty microliters of a reaction mixture […] were placed in 96 well plates and 20 μl of purified PPO proteins were added. After 50 μl of the mineral oil was layered, the reaction was initiated by adding the substrate, protoporphyrinogen IX solution, to a final concentration of 50 μM. The reaction proceeded at room temperature for 30 min and the fluorescence of protoporphyrin IX was measured using Microplate reader (Sense, Hidex) (excitation: 405 nm; emission: 633 nm). To calculate the PPO enzyme activity, the protoporphyrinogen IX solution was kept open in the air overnight to oxidize the solution. To this, 2.7 N HCl was added, and the absorbance at 408 nm was measured. A standard curve was generated using standard protoporphyrin IX, and PPO activity was measured by calibration of protoporphyrin IX using the standard curve of protoporphyrin IX.
Activities of variants were presented relatively compared to that of wild type.

[2] = tested on: MxPPO; assay: PPO enzyme activity of purified MBP-fused MxPPO wild type and variants; assay type: biochemical, Myxococcus xanthus; settings: PPO enzyme activity of purified MxPPO protein, relative to wild type
[3] = tested on: MxPPO; assay: Herbicide tolerance test of MxPPO wild type and variants in PPO-deficient E. coli BT3(ΔPPO), growth on herbicide-containing LB agar; assay type: cell-based, Myxococcus xanthus; settings: relative to MxPPO WT, dark; for Herbicide tolerance, flumioxazin: up to 1000 μM (FIGS. 21-22); for Herbicide tolerance, sulfentrazone: up to 4000 μM (FIGS. 23-24)
Method: Then, the extent of tolerance was evaluated.

Row | Molecule | Activity (%) [1] | Activity (%) [2] | Herbicide tolerance, flumioxazin [3] | Herbicide tolerance, sulfentrazone [3]
1 | F209A: ApPPO1 (SEQ ID NO: 1) variant (protein, Synthetic (Protoporphyrinogen IX oxidase (ApPPO1) of Auxenochlorella protothecoides)) MPFTHLKPLNRLLGSPRARHPHVAPQAVSVTNTSTTRPGGRSSAPGIPGDAEYDVVIVGAGISGLTTAQALAKQYSDAVPRLLVTEARDCVGGNIITRRDGGYQWEEGPNSFQPSDAVLRAAVDAGVADRLVLGDPKAPRYVYWGGRLRATPSGPDVLTFDLLSLWGKLRAGLGAAGFKAPLPEREESVKEFVTRNLGEEVFQRLIEPACSGVYAGDPAKLSMKAAFGKVYDLEKGGGSIVGGVLALMKARKQKPPEPRPADLPPKPKGQTVGSFDKGLVTLPSAIAEELGDRVVTGWKLESIDRSGDRFQLTYDTPQGRKKVSARSVALTVPAYTAASLLESRFPKLGKALSSIYYPPVASVALSYPETAILPERLGSDGHLAGFGQLHPRTQGVTTLGTIYASSLFPGRVPEGKVLLLSYFGGATNTRVATMPHGEIVSQVDKDLRKMLIRSDAESPHTVNVTVWPRAIPQFNVGHTDLIQEAKDDLASQGWQGLHLGGNYVAGVALGKCMEAGYKQAAELASHVKSLAT | 78% |  |  | 
2 | A215C: ApPPO1 (SEQ ID NO: 1) variant (protein, Synthetic (Protoporphyrinogen IX oxidase (ApPPO1) of Auxenochlorella protothecoides)) MPFTHLKPLNRLLGSPRARHPHVAPQAVSVTNTSTTRPGGRSSAPGIPGDAEYDVVIVGAGISGLTTAQALAKQYSDAVPRLLVTEARDCVGGNIITRRDGGYQWEEGPNSFQPSDAVLRAAVDAGVADRLVLGDPKAPRYVYWGGRLRATPSGPDVLTFDLLSLWGKLRAGLGAAGFKAPLPEREESVKEFVTRNLGEEVFQRLIEPFCSGVYCGDPAKLSMKAAFGKVYDLEKGGGSIVGGVLALMKARKQKPPEPRPADLPPKPKGQTVGSFDKGLVTLPSAIAEELGDRVVTGWKLESIDRSGDRFQLTYDTPQGRKKVSARSVALTVPAYTAASLLESRFPKLGKALSSIYYPPVASVALSYPETAILPERLGSDGHLAGFGQLHPRTQGVTTLGTIYASSLFPGRVPEGKVLLLSYFGGATNTRVATMPHGEIVSQVDKDLRKMLIRSDAESPHTVNVTVWPRAIPQFNVGHTDLIQEAKDDLASQGWQGLHLGGNYVAGVALGKCMEAGYKQAAELASHVKSLAT | 89% |  |  | 
3 | V213C: ApPPO1 (SEQ ID NO: 1) variant (protein, Synthetic (Protoporphyrinogen IX oxidase (ApPPO1) of Auxenochlorella protothecoides)) MPFTHLKPLNRLLGSPRARHPHVAPQAVSVTNTSTTRPGGRSSAPGIPGDAEYDVVIVGAGISGLTTAQALAKQYSDAVPRLLVTEARDCVGGNIITRRDGGYQWEEGPNSFQPSDAVLRAAVDAGVADRLVLGDPKAPRYVYWGGRLRATPSGPDVLTFDLLSLWGKLRAGLGAAGFKAPLPEREESVKEFVTRNLGEEVFQRLIEPFCSGCYAGDPAKLSMKAAFGKVYDLEKGGGSIVGGVLALMKARKQKPPEPRPADLPPKPKGQTVGSFDKGLVTLPSAIAEELGDRVVTGWKLESIDRSGDRFQLTYDTPQGRKKVSARSVALTVPAYTAASLLESRFPKLGKALSSIYYPPVASVALSYPETAILPERLGSDGHLAGFGQLHPRTQGVTTLGTIYASSLFPGRVPEGKVLLLSYFGGATNTRVATMPHGEIVSQVDKDLRKMLIRSDAESPHTVNVTVWPRAIPQFNVGHTDLIQEAKDDLASQGWQGLHLGGNYVAGVALGKCMEAGYKQAAELASHVKSLAT | 85% |  |  | 
4 | R95A + I168C + I311M + M365V: MxPPO (SEQ ID NO: 3) variant (protein, Synthetic (Protoporphyrinogen IX oxidase (MxPPO) of Myxococcus xanthus)) MHHMPRTTGMNVAVVGGGISGLAVAHHLRSRGTDAVLLESSARLGGAVGTHALAGYLVEQGPNSFLDREPATRALAAALNLEGRIRAADPAAKRAYVYTRGRLRSVPASPPAFLASDILPLGARLRVAGELFSRRAPEGVDESLAAFGRRHLGHRATQVLLDAVQTGCYAGDVEQLSVAATFPMLVKMEREHRSLILGAIRAQKAQRQAALPAGTAPKLSGALSTFDGGLQVLIDALAASLGDAAHVGARVEGLAREDGGWRLIIEEHGRRAELSVAQVVLAAPAHATAKLLRPLDDALAALVAGIAYAPMAVVHLGFDAGTLPAPDGFGFLVPAEEQRRMLGAIHASTTFPFRAEGGRVLYSCVVGGARQPGLVEQDEDALAALAREELKALAGVTARPSFTRVFRWPLGIPQYNLGHLERVAAIDAALQRLPGLHLIGNAYKGVGLNDCIRNAAQLADALVAGNTSHAP |  | 37% | + (1-9 fold higher tolerance) | +++ (100-999 fold higher tolerance)
5 | R95A + A170C + I311M + M365V: MxPPO (SEQ ID NO: 3) variant (protein, Synthetic (Protoporphyrinogen IX oxidase (MxPPO) of Myxococcus xanthus)) MHHMPRTTGMNVAVVGGGISGLAVAHHLRSRGTDAVLLESSARLGGAVGTHALAGYLVEQGPNSFLDREPATRALAAALNLEGRIRAADPAAKRAYVYTRGRLRSVPASPPAFLASDILPLGARLRVAGELFSRRAPEGVDESLAAFGRRHLGHRATQVLLDAVQTGIYCGDVEQLSVAATFPMLVKMEREHRSLILGAIRAQKAQRQAALPAGTAPKLSGALSTFDGGLQVLIDALAASLGDAAHVGARVEGLAREDGGWRLIIEEHGRRAELSVAQVVLAAPAHATAKLLRPLDDALAALVAGIAYAPMAVVHLGFDAGTLPAPDGFGFLVPAEEQRRMLGAIHASTTFPFRAEGGRVLYSCVVGGARQPGLVEQDEDALAALAREELKALAGVTARPSFTRVFRWPLGIPQYNLGHLERVAAIDAALQRLPGLHLIGNAYKGVGLNDCIRNAAQLADALVAGNTSHAP |  | 31% | + (1-9 fold higher tolerance) | + (1-9 fold higher tolerance)
6 | R95A + I168C + L332T + M365I: MxPPO (SEQ ID NO: 3) variant (protein, Synthetic (Protoporphyrinogen IX oxidase (MxPPO) of Myxococcus xanthus)) MHHMPRTTGMNVAVVGGGISGLAVAHHLRSRGTDAVLLESSARLGGAVGTHALAGYLVEQGPNSFLDREPATRALAAALNLEGRIRAADPAAKRAYVYTRGRLRSVPASPPAFLASDILPLGARLRVAGELFSRRAPEGVDESLAAFGRRHLGHRATQVLLDAVQTGCYAGDVEQLSVAATFPMLVKMEREHRSLILGAIRAQKAQRQAALPAGTAPKLSGALSTFDGGLQVLIDALAASLGDAAHVGARVEGLAREDGGWRLIIEEHGRRAELSVAQVVLAAPAHATAKLLRPLDDALAALVAGIAYAPIAVVHLGFDAGTLPAPDGFGFTVPAEEQRRMLGAIHASTTFPFRAEGGRVLYSCIVGGARQPGLVEQDEDALAALAREELKALAGVTARPSFTRVFRWPLGIPQYNLGHLERVAAIDAALQRLPGLHLIGNAYKGVGLNDCIRNAAQLADALVAGNTSHAP |  | 34% | + (1-9 fold higher tolerance) | ++ (10-99 fold higher tolerance)
